In patent US20120076780A1:
Read-outs that look alike come from different tables or passages of the source.

What was measured:
[1] = biological target: ErbB-1 (EGFR) on human cancer cells (SCC-1, SCC-9, C1-1 clone 3, C1-1 clone 7) (human) (UniProt P00533); experiment: cell-based or functional assay
[2] = biological target: ErbB-1 (EGFR) on human cancer cells (SCC-1, SCC-9, C1-1 clone 3, C1-1 clone 7) (human) (UniProt P00533); experiment: cell-based or functional assay; remark: listed apart in the source
[3] = biological target: ErbB-1 (EGFR) on human cancer cells (SCC-1, SCC-9, C1-1 clone 3, C1-1 clone 7) (human) (UniProt P00533); experiment: cell-based or functional assay; remark: listed apart in the source
[4] = biological target: ErbB2 on human tumor cells (SKBR3, A431, T47D, MCF7, MDA-MB231) (human) (UniProt P04626); experiment: cell-based or functional assay
[5] = biological target: ErbB2 on human tumor cells (SKBR3, A431, T47D, MCF7, MDA-MB231) (human) (UniProt P04626); experiment: whole-cell ELISA on SKBR3 cells, anti-PE detection, after 24 h at 37 C in 100% human serum
[6] = biological target: MUC1 on cells (T47D, MCF7, DA3-MUC1) (human) (UniProt P15941); experiment: whole-cell ELISA on T47D cells; apparent affinity from the half-maximal binding signal
[7] = biological target: MUC1, secreted isoform from conditioned medium of MUC1-transfected DA3 cells (UniProt P15941); experiment: ELISA on coated MUC1 conditioned medium; apparent affinity from the half-maximal binding signal

cetuximab-ZZ-PE38 complex (non-cross linked)
IC50, cell survival, XTT assay, SCC-1 cells [1]: 0.47 ng/mL | percent of SCC-1 cells killed at 0.001 µg/ml of immunotoxin complex [1]: 80% | IC50, cell survival, XTT assay, C1-1 prostate cancer cells clone 3 [2]: 12 ng/mL | IC50, cell survival, XTT assay, C1-1 prostate cancer cells clone 7 [2]: 38 ng/mL | IC50, cell survival, XTT assay, SCC-1 cells [2]: 0.261 ng/mL | IC50, cell survival, XTT assay, SCC-9 cells [2]: 0.073 ng/mL | IC50, cell survival, XTT assay, SCC-1 cells [3]: 0.31 ng/mL

chFRP5-ZZ-PE38 immunoconjugate (from UniProt P01857 1-330)
IC50 (ng/ml), cell killing, MTT assay 48 h, MCF7 cells [4]: 600 ng/mL | IC50 (ng/ml), cell killing, MTT assay 48 h, MDA-MB231 cells [4]: > 10000 ng/mL | IC50 (ng/ml), cell killing, MTT assay 48 h, T47D cells [4]: 1000 ng/mL | IC50 (pM), cell killing, MTT assay, A431 cells [4]: 10 pM | IC50 (pM), cell killing, MTT assay, MCF7 cells [4]: 300 pM | decrease of binding activity [5]: 17%

chimeric H23 IgG1 (from UniProt P01857 1-330) (antibody)
Kd [6]: 0.3 nM | Kd [7]: 0.3 nM

cross-linked cetuximab-ZZ-PE38 immunotoxin complex
IC50, cell survival, XTT assay, SCC-1 cells [3]: 7.54 ng/mL

murine H23 mAb (antibody)
Kd [6]: 0.25 nM | Kd [7]: 0.2 nM

scFv(FRP5)-ETA
IC50 (pM), cell killing, MTT assay, A431 cells [4]: 52 pM
